One experiment has as its target T1, GLP-2R Y182^1.43A (Homo sapiens, UniProt O95838, Y182A).
T1 sequence (O95838 1-553 Y182A): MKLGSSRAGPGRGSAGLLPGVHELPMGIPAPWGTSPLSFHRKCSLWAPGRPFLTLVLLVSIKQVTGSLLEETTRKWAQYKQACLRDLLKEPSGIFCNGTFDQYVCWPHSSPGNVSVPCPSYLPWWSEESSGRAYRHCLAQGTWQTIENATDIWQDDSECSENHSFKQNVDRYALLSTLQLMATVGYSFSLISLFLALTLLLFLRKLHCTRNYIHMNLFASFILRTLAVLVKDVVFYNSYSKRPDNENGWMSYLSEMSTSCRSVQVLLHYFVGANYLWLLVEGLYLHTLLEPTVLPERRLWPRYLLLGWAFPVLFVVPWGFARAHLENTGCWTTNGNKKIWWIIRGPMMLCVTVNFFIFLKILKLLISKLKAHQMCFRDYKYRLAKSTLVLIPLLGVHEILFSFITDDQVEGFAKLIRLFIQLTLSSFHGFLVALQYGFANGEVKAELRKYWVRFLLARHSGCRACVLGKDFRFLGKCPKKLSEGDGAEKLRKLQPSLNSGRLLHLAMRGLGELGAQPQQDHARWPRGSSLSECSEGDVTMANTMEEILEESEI
Kind of experiment: cAMP accumulation, Y182^1.43A. Also on record: WT (1–553); expressed in transfected cells; HEK 293T (cAMP). The following applies: Table S3, Y182A; HEK 293T, 30 min, RT; mean ± SEM, n ≥ 3 in duplicate; read-out: cAMP Emax (% WT). The format is cell-based. The procedure:
HEK 293T cells were cultured in Dulbecco’s Modified Eagle’s Medium (DMEM) (Gibco, Waltham, USA) supplemented with 10% (v/v) fetal bovine serum (FBS) (Gibco) and 1% (v/v) sodium pyruvate (Gibco) at 37 °C, 5% CO2 in a humidified incubator. They were seeded onto 6-well cell culture plates and transiently transfected with different GLP-2R constructs using Lipofectamine 2000 transfection reagent (Invitrogen, Carlsbad, CA, USA). After 24 h, the transfected cells were seeded onto 384-well microtiter plates (3000 cells per well) in HBSS supplemented with 5 mM HEPES, 0.1% (w/v) bovine serum albumin (BSA) and 0.5 mM 3-isobutyl-1- methylxanthine, and stimulated with increasing concentrations of GLP-2 for 30 min at RT. Eu and Ulight were diluted by cAMP detection buffer and added to the plates separately to terminate the reaction. Plates were incubated at RT for 60 min before measuring the fluorescence intensity at 620 nm and […] by an EnVision multilabel plate reader (PerkinElmer, Boston, USA).
For orientation: Cyclic AMP is a second messenger, typically raised through Gs and lowered through Gi signalling.

Experiment [1] concerns the target GLP-2R D244^ECL1A (human) (UniProt O95838). Kind of experiment: radioligand binding; competition on transiently transfected COS-7 cells: unlabeled GLP-2(1–33) 0.1 nM to 1 μM against 10–15 pM [125I]GLP-2(1–33, M10Y); 4 h, 4 °C; 50 mM HEPES pH 7.4, 1 mM CaCl2, 5 mM MgCl2, 0.5% BSA; three-parameter logistic fit.
For experiment [2], the target named is GLP-2R K414^7.35 A (human) (UniProt O95838). The description is as above.
Experiment [3] deals with GLP-2R N247^ECL1A (human) (UniProt O95838). Described as above.
In experiment [4] the target is GLP-2R R242^ECL1A (human) (UniProt O95838). The experiment is described as above.
Experiment [5] addresses GLP-2R R344^5.40A (human) (UniProt O95838). The experiment is described as above.
Experiment [6] addresses GLP-2R W249^ECL1A (human) (UniProt O95838). The experiment is described as above.
The target in experiment [7] is GLP-2R Y182^1.43A (human) (UniProt O95838). The description is as above.
Experiment [8] addresses GLP-2R Y252^ECL1A (human) (UniProt O95838). The experiment is described as above.
Experiment [9] deals with Human GLP-2R WT (1–553) (human) (UniProt O95838). The experiment is described as above.

GLP-2R Y252^ECL1A (human), sequence (O95838 whole entry Y252A): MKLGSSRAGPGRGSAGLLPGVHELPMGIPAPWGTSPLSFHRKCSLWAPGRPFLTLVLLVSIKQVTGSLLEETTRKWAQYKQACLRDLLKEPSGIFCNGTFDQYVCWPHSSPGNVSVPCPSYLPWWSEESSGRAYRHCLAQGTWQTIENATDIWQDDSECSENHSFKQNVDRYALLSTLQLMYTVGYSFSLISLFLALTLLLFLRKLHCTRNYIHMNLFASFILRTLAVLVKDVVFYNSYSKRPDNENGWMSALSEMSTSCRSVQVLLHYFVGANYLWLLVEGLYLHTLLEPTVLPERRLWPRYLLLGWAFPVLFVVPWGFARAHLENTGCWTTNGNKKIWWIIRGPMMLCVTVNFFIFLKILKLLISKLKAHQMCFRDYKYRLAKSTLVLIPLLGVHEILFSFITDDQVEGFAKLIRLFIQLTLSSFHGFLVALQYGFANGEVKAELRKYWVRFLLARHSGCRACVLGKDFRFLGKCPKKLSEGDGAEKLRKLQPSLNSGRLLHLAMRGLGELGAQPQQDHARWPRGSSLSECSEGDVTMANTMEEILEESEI
GLP-2R D244^ECL1A (human), sequence (O95838 whole entry D244A): as the sequence (O95838 whole entry Y252A) above, with D244A, A252Y counted along it
GLP-2R K414^7.35 A (human), sequence (O95838 whole entry K414A): as the sequence (O95838 whole entry Y252A) above, with A252Y, K414A counted along it
GLP-2R R242^ECL1A (human), sequence (O95838 whole entry R242A): as the sequence (O95838 whole entry Y252A) above, with R242A, A252Y counted along it

With `CC[C@H](C)[C@H](NC(=O)[C@H](Cc1ccccc1)NC(=O)[C@H](CC(=O)O)NC(=O)[C@H](CCCNC(=N)N)NC(=O)[C@H](C)NC(=O)[C@H](C)NC(=O)[C@H](CC(C)C)NC(=O)[C@H](CC(N)=O)NC(=O)[C@H](CC(=O)O)NC(=O)[C@H](CC(C)C)NC(=O)[C@@H](NC(=O)[C@@H](NC(=O)[C@H](CC(N)=O)NC(=O)[C@H](CCSC)NC(=O)[C@H](CCC(=O)O)NC(=O)[C@H](CC(=O)O)NC(=O)[C@H](CO)NC(=O)[C@H](Cc1ccccc1)NC(=O)[C@H](CO)NC(=O)CNC(=O)[C@H](CC(=O)O)NC(=O)[C@H](C)NC(=O)[C@@H](N)Cc1c[nH]cn1)[C@@H](C)O)[C@@H](C)CC)C(=O)N[C@@H](CC(N)=O)C(=O)N[C@@H](Cc1c[nH]c2ccccc12)C(=O)N[C@@H](CC(C)C)C(=O)N[C@H](C(=O)N[C@@H](CCC(N)=O)C(=O)N[C@H](C(=O)N[C@@H](CCCCN)C(=O)N[C@H](C(=O)N[C@H](C(=O)N[C@@H](CC(=O)O)C(=O)O)[C@@H](C)O)[C@@H](C)CC)[C@@H](C)O)[C@@H](C)CC` [Human GLP-2 (1–33)], the Emax (as a rule, the greatest response seen or fitted, relative to the assay's reference) at GLP-2R Y182^1.43A was 102 ± 3.9%.

In the case of [^125I]GLP-2(1–33, M10Y) (peptide), the % Binding of WT in [1] amounted to 69.1%; in experiment [2] it was 15.2%; in experiment [3] it was 131%; in experiment [4], 4.2%; in experiment [5], 5%; in experiment [6] it was 2.2%. The results for the % Binding of WT in [7], in experiment [8] and in [9] were 3.4%, 8.3% and 99.2%, respectively.

(Values after publication PMC7785020, “A unique hormonal recognition feature of the human glucagon-like peptide-2 receptor” (Cell Research, 2020).)
